{"source": "paper PMC4339652", "about": "“Antibacterial toxin colicin N and phage protein G3p compete with TolB for a binding site on TolA” (Microbiology, 2015)", "binders": {"B1": {"name": "G3p-N1, N-terminal (N1) domain of gene-3-protein of filamentous bacteriophage M13 (domain or fragment, UniProt P69168 19-104, looked up)", "chain": "AETVESCLAKPHTENSFTNVWKDDKTLDRYANYEGCLWNATGVVVCTGDETQCYGTWVPIGLAIPENEGGGSEGGGSEGGGSEGGG", "notes": "Gene-3-protein (G3p, minor coat protein), filamentous bacteriophage M13, N1 domain; also called G3p-sN1"}, "B2": {"name": "Colicin N translocation domain, ColN-T (ColN 1-90) (domain or fragment)", "chain": "MGSNGADNAHNNAFGGGKNPGIGNTSGAGSNGSASSNRGNSNGWSWSNKPHKNDGFHSDGSYHITFHGDNNSKPKPGGNSGNRGNNGDGA", "notes": "Colicin N, disordered N-terminal translocation (T) domain, residues 1-90; also called ColN-T_(1–90); T_(1–90)"}, "B3": {"name": "TolAIII (TolA domain III, residues 296-421), wild type (domain or fragment, E. coli, UniProt P19934 296-421, looked up)", "chain": "DIFGELSSGKNAPKTGGGAKGNNASPAGSGNTKNNGASGADINNYAGQIKSAIESKFYDASSYAGKTCTLRIKLAPDGMLLDIKPEGGDPALCQAALAAAKLAKIPKPPSQAVYEVFKNAPLDFKP", "notes": "TolA, E. coli, 421-residue protein; C-terminal domain III, residues 296-421, soluble truncate lacking TolAI-II; also called TolA_(III296–421); WT TolAIII"}}, "settings_in_all_cases": "both partners purified", "key": {"[1]": {"molecular_target": "B3", "test": "SPR; TolAIII WT, D418P or K420P amine-coupled to a CM5 chip (~550 RU; 155 RU TolAIII for ColN-T kinetics); concentration series of analyte (ColN-T, G3p-N1 0.2-50 µM; G3p-N1 V44P up to 250 µM); Biacore X-100, 25 °C, HEPES-EP (10 mM HEPES pH 7.4, 150 mM NaCl, 3.4 mM EDTA, 0.05 % P20); blank surface subtracted; kinetic fits and steady-state affinity"}, "TolB, wild type": {"molecular_target": "T1, TolB, wild type (UniProt P0A855 22-430)", "T1 construct": "TolB, 47 kDa two-domain soluble periplasmic protein; also called WT TolB", "test": "SPR; TolAIII (645 RU) amine-coupled to CM5; WT TolB or TolB mutants passed over (5 µM in Fig. 4e); 1:1 Langmuir fits and steady-state affinity; HEPES-EP, 25 °C"}, "TolB DGSY-AGAA": {"molecular_target": "T2, TolB DGSY-AGAA (UniProt P0A855 22-430, DGSY-AGAA)", "T2 construct": "TolB with DGSY (109-112) changed to AGAA", "test": "SPR; TolAIII (645 RU) amine-coupled to CM5; WT TolB or TolB mutants passed over (5 µM in Fig. 4e); 1:1 Langmuir fits and steady-state affinity; HEPES-EP, 25 °C"}}, "note": "Where “and” joins values, the source holds several entries; their conditions need not be identical. Equal values may be shown once."}
{"binder": "B1", "values": [{"measurement": "Kd", "setting": "[1]", "result": "15 µM and 11.9 µM"}, {"measurement": "koff", "setting": "[1]", "result": "0.31 ± 0.002", "unit": "s⁻¹"}, {"measurement": "kon", "setting": "[1]", "result": 20600, "unit": "M⁻¹ s⁻¹"}]}
{"binder": "B2", "values": [{"measurement": "Kd", "setting": "[1]", "result": "1.8 ± 0.2", "unit": "µM"}]}
{"binder": "B3", "values": [{"measurement": "Kd", "setting": "TolB, wild type", "result": "37 µM and 43.2 µM"}, {"measurement": "koff", "setting": "TolB, wild type", "result": "0.3 ± 0.004", "unit": "s⁻¹"}, {"measurement": "kon", "setting": "TolB, wild type", "result": 8270, "unit": "M⁻¹ s⁻¹"}, {"measurement": "Kd", "setting": "TolB DGSY-AGAA", "result": "39 µM and 48.3 µM"}, {"measurement": "koff", "setting": "TolB DGSY-AGAA", "result": "0.1 ± 0.002", "unit": "s⁻¹"}, {"measurement": "kon", "setting": "TolB DGSY-AGAA", "result": 2710, "unit": "M⁻¹ s⁻¹"}]}
